Numbered stars: 1 amine (or outer) side, 2 acyl side, 3 side chain; on linkers, the order of the positions; unused ones are H or OH. Bridge positions count the residues as written; N and C are the ends. Side chains are listed from the residue outwards. Ends that are not written are not given here. * marks the point of attachment. C20 diacid = O=C(O)CCCCCCCCCCCCCCCCCCC(=O)*; γGlu = O=C(O)[C@H](CCC(=O)[*:2])N[*:1]; AEEA = NCCOCCOCC(=O)O

Test [1] deals with T1, human calcitonin receptor (human, UniProt P30988 25-474).
T1 construct: whole, on cells; Used as cell membranes prepared from the transfected BHK cells (Assay VII), not as intact cells; also called hCTR; hCT
T1 sequence (looked up): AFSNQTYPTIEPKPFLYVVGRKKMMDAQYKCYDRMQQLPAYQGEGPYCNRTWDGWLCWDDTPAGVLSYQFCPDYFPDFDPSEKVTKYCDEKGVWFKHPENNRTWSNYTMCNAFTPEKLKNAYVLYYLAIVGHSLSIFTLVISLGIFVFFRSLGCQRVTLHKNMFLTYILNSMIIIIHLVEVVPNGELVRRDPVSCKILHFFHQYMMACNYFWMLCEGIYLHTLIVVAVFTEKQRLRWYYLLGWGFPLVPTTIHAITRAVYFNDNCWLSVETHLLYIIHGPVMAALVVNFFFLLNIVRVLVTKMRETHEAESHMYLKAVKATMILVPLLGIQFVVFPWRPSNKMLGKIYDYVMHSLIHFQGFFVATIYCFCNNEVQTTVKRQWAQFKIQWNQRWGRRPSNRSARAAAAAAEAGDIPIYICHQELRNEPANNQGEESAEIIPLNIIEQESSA
Kind of test: SPA competition against 125I-calcitonin, membranes with human calcitonin receptor (Assay VII). The procedure, abridged: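 BHK hCTR membranes 35 ng/μL + SPA beads 0.05 mg/well; buffer 50 mM Hepes pH 7.4, 1 mM CaCl2, 5 mM MgCl₂, 0.1% OA, 0.02% Tween20. 120 min, 25° C., shaking. Scintillation count; IC50 by one-site binding competition.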

In test [2] the target is T2, human amylin receptor (human calcitonin receptor co-expressed with RAMP-3; amylin 3(a) receptor) (human, UniProt P30988 25-474; O60896 24-148, limits assumed).
T2 construct: whole, on cells; Used as cell membranes prepared from Amylin 3(a)/CRE-luc BHK cells (Assay V), not as intact cells; also called hAmylin-R; hAmylinR
T2 sequence (looked up) 1: T1 sequence (looked up)
T2 sequence (looked up) 2: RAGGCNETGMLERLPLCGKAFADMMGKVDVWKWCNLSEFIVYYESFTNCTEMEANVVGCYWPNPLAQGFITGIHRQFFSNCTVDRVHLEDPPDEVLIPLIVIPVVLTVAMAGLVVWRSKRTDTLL
Kind of test: ratio of hCTR binding IC50 to hAmylin-R binding IC50 (reference: human calcitonin receptor). How it is done: The resulting pellet was resuspended, homogenized and centrifuged (20.000 rpm, 15 min) in a buffer containing 20 mM Na-HEPES and 0.1 mM EDTA (pH 7.4, buffer 2). The resulting pellet was resuspended in buffer 2 and protein concentration was measured (BCA protein Assay, Pierce). The homogenate was kept cold during the whole procedure. The membranes were kept at −80° C. until use. The assay was performed in a 384 well Optiplate (PerkinElmer) in a total volume of 40 ul. Membranes were mixed with SPA beads. Final concentration of membranes 35 ng/μL final and SPA beads was 0.05 mg/well. Test-compounds were dissolved in DMSO and further diluted in assay buffer (50 mM Hepes, pH 7.4, 1 mM CaCl2, 5 mM MgCl₂, 0.1% OA and 0.02% Tween20). […] The final mixture was incubated with shaking at 400 rpm for 120 min at 25° C. prior to centrifugation (1500 rpm, 10 min). Samples were analyzed on TopCounter™ (Packard). The IC₅₀ was calculated using (one site binding competition analysis) GraphPad Prism5 as a measure of receptor affinity.
Membranes were prepared in the following way; the cells were rinsed with PBS and incubated with Versene for approximately 5 min before harvesting. The cells were flushed with PBS and the cell-suspension was centrifuged for 5 min at 1000 rpm. Cells were homogenized (Ultrathurrax) in a buffer containing 20 mM Na-HEPES and 10 mM EDTA (pH 7.4) and centrifuged at 20.000 rpm for 15 min. The resulting pellet was resuspended, homogenized and centrifuged (20.000 rpm, 15 min) in a buffer containing 20 mM Na-HEPES and 0.1 mM EDTA (pH 7.4, buffer 2). The resulting pellet was resuspended in buffer 2 and protein concentration was measured (BCA protein Assay, Pierce). The homogenate was kept cold during the whole procedure. The membranes were kept at −80° C. until use. Assay was performed in a 384 well Optiplate (PerkinElmer) in a total volume of 40 ul. Membranes were mixed with SPA beads.

B1: N^ε1-[2-[2-[2-[[(4S)-4-carboxy-4-(19-carboxynonadecanoylamino)butanoyl]amino]ethoxy]ethoxy]acetyl]-[His14,Arg17,Pro21,Pro27,Pro34]-h-amylin (peptide)
peptide: K([AEEA-γGlu-C20 diacid])CNTATCATQRLAHFLRHSSPNFGAIPSSTNVGPNTY-NH2
modifications: disulfide 2-7; N-terminus assumed
SMILES: CC[C@H](C)[C@H](NC(=O)[C@H](C)NC(=O)CNC(=O)[C@H](Cc1ccccc1)NC(=O)[C@H](CC(N)=O)NC(=O)[C@@H]1CCCN1C(=O)[C@H](CO)NC(=O)[C@H](CO)NC(=O)[C@H](Cc1c[nH]cn1)NC(=O)[C@H](CCCNC(=N)N)NC(=O)[C@H](CC(C)C)NC(=O)[C@H](Cc1ccccc1)NC(=O)[C@H](Cc1c[nH]cn1)NC(=O)[C@H](C)NC(=O)[C@H](CC(C)C)NC(=O)[C@H](CCCNC(=N)N)NC(=O)[C@H](CCC(N)=O)NC(=O)[C@@H](NC(=O)[C@H](C)NC(=O)[C@@H]1CSSC[C@H](NC(=O)[C@@H](N)CCCCNC(=O)COCCOCCNC(=O)CC[C@H](NC(=O)CCCCCCCCCCCCCCCCCCC(=O)O)C(=O)O)C(=O)N[C@@H](CC(N)=O)C(=O)N[C@@H]([C@@H](C)O)C(=O)N[C@@H](C)C(=O)N[C@@H]([C@@H](C)O)C(=O)N1)[C@@H](C)O)C(=O)N1CCC[C@H]1C(=O)N[C@@H](CO)C(=O)N[C@@H](CO)C(=O)N[C@H](C(=O)N[C@@H](CC(N)=O)C(=O)N[C@H](C(=O)NCC(=O)N1CCC[C@H]1C(=O)N[C@@H](CC(N)=O)C(=O)N[C@H](C(=O)N[C@@H](Cc1ccc(O)cc1)C(N)=O)[C@@H](C)O)C(C)C)[C@@H](C)O
notes: also called compound 68
On to B1, for which the half-maximal inhibitory concentration (IC50) (as a rule, the concentration at which inhibition is half-maximal) in test [1] was found to be 5.66 nM. Also, the “Ratio hCT/hAmylin binding” value in test [2] stood at 64.4.

B2: N^ε1-[(4S)-4-carboxy-4-(19-carboxynonadecanoylamino)butanoyl]-[Glu14,Arg17,Pro21,Pro27,Arg35]-h-amylin (peptide)
peptide: K([γGlu-C20 diacid])CNTATCATQRLAEFLRHSSPNFGAIPSSTNVGSRTY-NH2
modifications: disulfide 2-7; N-terminus assumed
SMILES: CC[C@H](C)[C@H](NC(=O)[C@H](C)NC(=O)CNC(=O)[C@H](Cc1ccccc1)NC(=O)[C@H](CC(N)=O)NC(=O)[C@@H]1CCCN1C(=O)[C@H](CO)NC(=O)[C@H](CO)NC(=O)[C@H](Cc1c[nH]cn1)NC(=O)[C@H](CCCNC(=N)N)NC(=O)[C@H](CC(C)C)NC(=O)[C@H](Cc1ccccc1)NC(=O)[C@H](CCC(=O)O)NC(=O)[C@H](C)NC(=O)[C@H](CC(C)C)NC(=O)[C@H](CCCNC(=N)N)NC(=O)[C@H](CCC(N)=O)NC(=O)[C@@H](NC(=O)[C@H](C)NC(=O)[C@@H]1CSSC[C@H](NC(=O)[C@@H](N)CCCCNC(=O)CC[C@H](NC(=O)CCCCCCCCCCCCCCCCCCC(=O)O)C(=O)O)C(=O)N[C@@H](CC(N)=O)C(=O)N[C@@H]([C@@H](C)O)C(=O)N[C@@H](C)C(=O)N[C@@H]([C@@H](C)O)C(=O)N1)[C@@H](C)O)C(=O)N1CCC[C@H]1C(=O)N[C@@H](CO)C(=O)N[C@@H](CO)C(=O)N[C@H](C(=O)N[C@@H](CC(N)=O)C(=O)N[C@H](C(=O)NCC(=O)N[C@@H](CO)C(=O)N[C@@H](CCCNC(=N)N)C(=O)N[C@H](C(=O)N[C@@H](Cc1ccc(O)cc1)C(N)=O)[C@@H](C)O)C(C)C)[C@@H](C)O
notes: also called compound 51
On to B2, for which the IC50 in test [1] came out at 31.1 nM. Further, the “Ratio hCT/hAmylin binding” value in test [2] came out at 37.5.

B3: N^ε1-[(4S)-4-carboxy-4-(19-carboxynonadecanoylamino)butanoyl]-[Arg17,Pro21,Pro27,His35]-h-amylin (peptide)
peptide: K([γGlu-C20 diacid])CNTATCATQRLANFLRHSSPNFGAIPSSTNVGSHTY-NH2
modifications: disulfide 2-7; N-terminus assumed
SMILES: CC[C@H](C)[C@H](NC(=O)[C@H](C)NC(=O)CNC(=O)[C@H](Cc1ccccc1)NC(=O)[C@H](CC(N)=O)NC(=O)[C@@H]1CCCN1C(=O)[C@H](CO)NC(=O)[C@H](CO)NC(=O)[C@H](Cc1c[nH]cn1)NC(=O)[C@H](CCCNC(=N)N)NC(=O)[C@H](CC(C)C)NC(=O)[C@H](Cc1ccccc1)NC(=O)[C@H](CC(N)=O)NC(=O)[C@H](C)NC(=O)[C@H](CC(C)C)NC(=O)[C@H](CCCNC(=N)N)NC(=O)[C@H](CCC(N)=O)NC(=O)[C@@H](NC(=O)[C@H](C)NC(=O)[C@@H]1CSSC[C@H](NC(=O)[C@@H](N)CCCCNC(=O)CC[C@H](NC(=O)CCCCCCCCCCCCCCCCCCC(=O)O)C(=O)O)C(=O)N[C@@H](CC(N)=O)C(=O)N[C@@H]([C@@H](C)O)C(=O)N[C@@H](C)C(=O)N[C@@H]([C@@H](C)O)C(=O)N1)[C@@H](C)O)C(=O)N1CCC[C@H]1C(=O)N[C@@H](CO)C(=O)N[C@@H](CO)C(=O)N[C@H](C(=O)N[C@@H](CC(N)=O)C(=O)N[C@H](C(=O)NCC(=O)N[C@@H](CO)C(=O)N[C@@H](Cc1c[nH]cn1)C(=O)N[C@H](C(=O)N[C@@H](Cc1ccc(O)cc1)C(N)=O)[C@@H](C)O)C(C)C)[C@@H](C)O
notes: also called compound 60
As for B3, the IC50 in test [1] turned out to be 31.4 nM. The “Ratio hCT/hAmylin binding” value in test [2] worked out at 45.2.

B4: N^ε1-[(4S)-4-carboxy-4-(19-carboxynonadecanoylamino)butanoyl]-[Arg14,Arg17,Pro21,Pro27,Pro31]-h-amylin (peptide)
peptide: K([γGlu-C20 diacid])CNTATCATQRLARFLRHSSPNFGAIPSSTPVGSNTY-NH2
modifications: disulfide 2-7; N-terminus assumed
SMILES: CC[C@H](C)[C@H](NC(=O)[C@H](C)NC(=O)CNC(=O)[C@H](Cc1ccccc1)NC(=O)[C@H](CC(N)=O)NC(=O)[C@@H]1CCCN1C(=O)[C@H](CO)NC(=O)[C@H](CO)NC(=O)[C@H](Cc1c[nH]cn1)NC(=O)[C@H](CCCNC(=N)N)NC(=O)[C@H](CC(C)C)NC(=O)[C@H](Cc1ccccc1)NC(=O)[C@H](CCCNC(=N)N)NC(=O)[C@H](C)NC(=O)[C@H](CC(C)C)NC(=O)[C@H](CCCNC(=N)N)NC(=O)[C@H](CCC(N)=O)NC(=O)[C@@H](NC(=O)[C@H](C)NC(=O)[C@@H]1CSSC[C@H](NC(=O)[C@@H](N)CCCCNC(=O)CC[C@H](NC(=O)CCCCCCCCCCCCCCCCCCC(=O)O)C(=O)O)C(=O)N[C@@H](CC(N)=O)C(=O)N[C@@H]([C@@H](C)O)C(=O)N[C@@H](C)C(=O)N[C@@H]([C@@H](C)O)C(=O)N1)[C@@H](C)O)C(=O)N1CCC[C@H]1C(=O)N[C@@H](CO)C(=O)N[C@@H](CO)C(=O)N[C@H](C(=O)N1CCC[C@H]1C(=O)N[C@H](C(=O)NCC(=O)N[C@@H](CO)C(=O)N[C@@H](CC(N)=O)C(=O)N[C@H](C(=O)N[C@@H](Cc1ccc(O)cc1)C(N)=O)[C@@H](C)O)C(C)C)[C@@H](C)O
notes: also called compound 63
For B4, in test [1], the half-inhibitory concentration (IC50) was found to be 130 nM. The “Ratio hCT/hAmylin binding” value in test [2] was 157.

B5: N^ε1-[(4S)-4-carboxy-4-(19-carboxynonadecanoylamino)butanoyl]-[Arg14,Arg17,Pro21,Pro27,Pro34]-h-amylin (peptide)
peptide: K([γGlu-C20 diacid])CNTATCATQRLARFLRHSSPNFGAIPSSTNVGPNTY-NH2
modifications: disulfide 2-7; N-terminus assumed
SMILES: CC[C@H](C)[C@H](NC(=O)[C@H](C)NC(=O)CNC(=O)[C@H](Cc1ccccc1)NC(=O)[C@H](CC(N)=O)NC(=O)[C@@H]1CCCN1C(=O)[C@H](CO)NC(=O)[C@H](CO)NC(=O)[C@H](Cc1c[nH]cn1)NC(=O)[C@H](CCCNC(=N)N)NC(=O)[C@H](CC(C)C)NC(=O)[C@H](Cc1ccccc1)NC(=O)[C@H](CCCNC(=N)N)NC(=O)[C@H](C)NC(=O)[C@H](CC(C)C)NC(=O)[C@H](CCCNC(=N)N)NC(=O)[C@H](CCC(N)=O)NC(=O)[C@@H](NC(=O)[C@H](C)NC(=O)[C@@H]1CSSC[C@H](NC(=O)[C@@H](N)CCCCNC(=O)CC[C@H](NC(=O)CCCCCCCCCCCCCCCCCCC(=O)O)C(=O)O)C(=O)N[C@@H](CC(N)=O)C(=O)N[C@@H]([C@@H](C)O)C(=O)N[C@@H](C)C(=O)N[C@@H]([C@@H](C)O)C(=O)N1)[C@@H](C)O)C(=O)N1CCC[C@H]1C(=O)N[C@@H](CO)C(=O)N[C@@H](CO)C(=O)N[C@H](C(=O)N[C@@H](CC(N)=O)C(=O)N[C@H](C(=O)NCC(=O)N1CCC[C@H]1C(=O)N[C@@H](CC(N)=O)C(=O)N[C@H](C(=O)N[C@@H](Cc1ccc(O)cc1)C(N)=O)[C@@H](C)O)C(C)C)[C@@H](C)O
notes: also called compound 65
On to B5, for which, in test [1], the IC50 came out at 53.5 nM. Moreover, in test [2], the “Ratio hCT/hAmylin binding” value was determined as 82.4.

Values taken from US20140087995A1 (published 2014).
